Measurements reported in publication PMC10412584, “Molecular reshaping of phage-displayed Interleukin-2 at beta chain receptor interface to obtain potent super-agonists with improved developability profiles” (Communications Biology, 2023).

T1: recombinant fusion protein comprising human IL-2R beta subunit extracellular domain and mouse IgG2a Fc (human, UniProt P14784 27-240)
T1 construct: human IL-2 receptor beta subunit (CD122), extracellular domain; also called IL-2R beta/mFc; IL-2R beta ECD/mouse IgG2a Fc
T1 sequence (looked up): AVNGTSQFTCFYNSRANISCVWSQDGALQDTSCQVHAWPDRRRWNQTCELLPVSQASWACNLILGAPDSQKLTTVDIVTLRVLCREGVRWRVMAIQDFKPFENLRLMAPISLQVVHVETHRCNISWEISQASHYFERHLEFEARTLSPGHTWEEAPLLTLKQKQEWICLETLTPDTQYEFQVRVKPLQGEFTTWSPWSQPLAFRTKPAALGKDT

B1: 81DPQDLIE87 + I92L(K35E)/Fc (Fc fusion, human, UniProt P60568 21-153, looked up)
chain: APTSSSTKKTQLQLEHLLLDLQMILNGINNYKNPELTRMLTFKFYMPKKATELKHLQCLEEELKPLEEVLNLAQSKNFHLDPQDLIENINVLVLELKGSETTFMCEYADETATIVEFLNRWITFCQSIISTLT
notes: human interleukin-2 whose segment 81-87 reads DPQDLIE, with I92L; the first two aa (Ala-Pro) are present in the Fc constructs; source: HEK-293T adapted to suspension, transient transfection, purified from supernatant (protein A)
B2: 80VPPEDLIA87 + I92L(K35E)/Fc (Fc fusion, human, UniProt P60568 21-153, looked up)
chain: APTSSSTKKTQLQLEHLLLDLQMILNGINNYKNPELTRMLTFKFYMPKKATELKHLQCLEEELKPLEEVLNLAQSKNFHVPPEDLIANINVLVLELKGSETTFMCEYADETATIVEFLNRWITFCQSIISTLT
notes: the first two aa (Ala-Pro) are present in the Fc constructs; source: HEK-293T adapted to suspension, transient transfection, purified from supernatant (protein A)
B3: H9(K35E)/Fc in which F92 was replaced by the original Ile (Fc fusion, human, UniProt P60568 21-153, looked up)
chain: APTSSSTKKTQLQLEHLLLDLQMILNGINNYKNPELTRMLTFKFYMPKKATELKHLQCLEEELKPLEEVLNLAQSKNFHFDPRDVVSNINVIVLELKGSETTFMCEYADETATIVEFLNRWITFCQSIISTLT
notes: human interleukin-2 with the H9 mutations except that residue 92 is the original Ile; the first two aa (Ala-Pro) are present in the Fc constructs; also called F92I-containing protein; source: HEK-293T adapted to suspension, transient transfection, purified from supernatant (protein A)
B4: 81DPQDLIE87(K35E)/Fc (Fc fusion, human, UniProt P60568 21-153, looked up)
chain: APTSSSTKKTQLQLEHLLLDLQMILNGINNYKNPELTRMLTFKFYMPKKATELKHLQCLEEELKPLEEVLNLAQSKNFHLDPQDLIENINVIVLELKGSETTFMCEYADETATIVEFLNRWITFCQSIISTLT
notes: human interleukin-2 whose segment 81-87 reads DPQDLIE; the first two aa (Ala-Pro) are present in the Fc constructs; source: HEK-293T adapted to suspension, transient transfection, purified from supernatant (protein A)
B5: 81VPEDLIE87(K35E)/Fc (Fc fusion, human, UniProt P60568 21-153, looked up)
chain: APTSSSTKKTQLQLEHLLLDLQMILNGINNYKNPELTRMLTFKFYMPKKATELKHLQCLEEELKPLEEVLNLAQSKNFHLVPEDLIENINVIVLELKGSETTFMCEYADETATIVEFLNRWITFCQSIISTLT
notes: human interleukin-2 whose segment 81-87 reads VPEDLIE; the first two aa (Ala-Pro) are present in the Fc constructs; source: HEK-293T adapted to suspension, transient transfection, purified from supernatant (protein A)
B6: 81VPEDLIE87 + I92L(K35E)/Fc (Fc fusion, human, UniProt P60568 21-153, looked up)
chain: APTSSSTKKTQLQLEHLLLDLQMILNGINNYKNPELTRMLTFKFYMPKKATELKHLQCLEEELKPLEEVLNLAQSKNFHLVPEDLIENINVLVLELKGSETTFMCEYADETATIVEFLNRWITFCQSIISTLT
notes: human interleukin-2 whose segment 81-87 reads VPEDLIE, with I92L; the first two aa (Ala-Pro) are present in the Fc constructs; source: HEK-293T adapted to suspension, transient transfection, purified from supernatant (protein A)
B7: 80FDPHDVVE87 + I92L + V93L(K35E)/Fc (Fc fusion, human, UniProt P60568 21-153, looked up)
chain: APTSSSTKKTQLQLEHLLLDLQMILNGINNYKNPELTRMLTFKFYMPKKATELKHLQCLEEELKPLEEVLNLAQSKNFHFDPHDVVENINVLLLELKGSETTFMCEYADETATIVEFLNRWITFCQSIISTLT
notes: the first two aa (Ala-Pro) are present in the Fc constructs; also called fusion protein derived from phage clone 1A; source: HEK-293T adapted to suspension, transient transfection, purified from supernatant (protein A)
B8: 80VPPEDLIE87 + I92L(K35E)/Fc (Fc fusion, human, UniProt P60568 21-153, looked up)
chain: APTSSSTKKTQLQLEHLLLDLQMILNGINNYKNPELTRMLTFKFYMPKKATELKHLQCLEEELKPLEEVLNLAQSKNFHVPPEDLIENINVLVLELKGSETTFMCEYADETATIVEFLNRWITFCQSIISTLT
notes: the first two aa (Ala-Pro) are present in the Fc constructs; also called variant 2B further optimized by incorporating S87E; source: HEK-293T adapted to suspension, transient transfection, purified from supernatant (protein A)
B9: H9(K35E)/Fc in which F92 was replaced by the phage-selected Leu (Fc fusion, human, UniProt P60568 21-153, looked up)
chain: APTSSSTKKTQLQLEHLLLDLQMILNGINNYKNPELTRMLTFKFYMPKKATELKHLQCLEEELKPLEEVLNLAQSKNFHFDPRDVVSNINVLVLELKGSETTFMCEYADETATIVEFLNRWITFCQSIISTLT
notes: human interleukin-2 with the H9 mutations except that residue 92 is Leu; the first two aa (Ala-Pro) are present in the Fc constructs; also called F92L-containing protein; source: HEK-293T adapted to suspension, transient transfection, purified from supernatant (protein A)
B10: 80FDPEDVVE87 + I92L(K35E)/Fc (Fc fusion, human, UniProt P60568 21-153, looked up)
chain: APTSSSTKKTQLQLEHLLLDLQMILNGINNYKNPELTRMLTFKFYMPKKATELKHLQCLEEELKPLEEVLNLAQSKNFHFDPEDVVENINVLVLELKGSETTFMCEYADETATIVEFLNRWITFCQSIISTLT
notes: as for B2
B11: 80FDPADVVE87 + I92L(K35E)/Fc (Fc fusion, human, UniProt P60568 21-153, looked up)
chain: APTSSSTKKTQLQLEHLLLDLQMILNGINNYKNPELTRMLTFKFYMPKKATELKHLQCLEEELKPLEEVLNLAQSKNFHFDPADVVENINVLVLELKGSETTFMCEYADETATIVEFLNRWITFCQSIISTLT
notes: as for B2
B12: H9(K35E)/Fc (Fc fusion, human, UniProt P60568 21-153, looked up)
chain: APTSSSTKKTQLQLEHLLLDLQMILNGINNYKNPELTRMLTFKFYMPKKATELKHLQCLEEELKPLEEVLNLAQSKNFHFDPRDVVSNINVFVLELKGSETTFMCEYADETATIVEFLNRWITFCQSIISTLT
notes: human interleukin-2 with the mutations of H9 superkine and K35E; the first two aa (Ala-Pro) are present in the Fc constructs; Heavily aggregated in SEC; also called H9(K35)/Fc; fusion protein based on H9 superkine; source: HEK-293T adapted to suspension, transient transfection, purified from supernatant (protein A)

The binders below were run against T1, recombinant fusion protein comprising … (assay: ELISA; polyvinyl chloride plates coated with IL-2R beta ECD/mouse IgG2a Fc at 10 µg/mL in PBS; Fc-fusion proteins diluted in M-PBS, 1 h at RT; detected with anti-human IgG-HRP). Details: both partners purified.

| Binder | binding result |
| --- | --- |
| B1 | binds |
| B2 | binds |
| B3 | binds |
| B4 | binds |
| B5 | binds |
| B6 | binds |
| B7 | binds |
| B8 | binds |
| B9 | binds |
| B10 | binds |
| B11 | binds |

What follows are binders tested against T1, recombinant fusion protein comprising … (assay: SPR; Biacore T200; IL-2R beta ECD/mouse IgG2a Fc amine-coupled to a CM5 chip; Fc-fusion proteins 1-800 nmol/L injected at 15 µL/min in PBS with 0.05% Tween 20; single-cycle mode; global fit to the 1:1 model). Details: both partners purified.

| Binder | fold decrease of KD against IL-2(K35E)/Fc [fold] | koff [s⁻¹] |
| --- | --- | --- |
| B12 | ~25 | ~0.0003 |
